# Tests used:
# Assay in all cases: fluorescence anisotropy
# dsRBD3/4 I105A S106A = dsRBD3/4 I105A S106A (Homo sapiens, UniProt O95793-2 102-274, I105A;S106A)
# [1] = target: dsRBD3/4 S208A Q212A Q215A (Homo sapiens, UniProt O95793-2 102-274, S208A;Q212A;Q215A)
# dsRBD3/4 Q212A Q215A = dsRBD3/4 Q212A Q215A (Homo sapiens, UniProt O95793-2 102-274, Q212A;Q215A)
# dsRBD3/4 F109A R209A = dsRBD3/4 F109A R209A (Homo sapiens, UniProt O95793-2 102-274, F109A;R209A)
# dsRBD3/4 R209A = dsRBD3/4 R209A (Homo sapiens, UniProt O95793-2 102-274, R209A)
# dsRBD3 F109A = dsRBD3 F109A (Homo sapiens, UniProt O95793-2 102-181, F109A)
# [2] = target: dsRBD3/4 E110A L113A Q212A Q215A (Homo sapiens, UniProt O95793-2 102-274, E110A;L113A;Q212A;Q215A)
# dsRBD3/4 E110A L113A = dsRBD3/4 E110A L113A (Homo sapiens, UniProt O95793-2 102-274, E110A;L113A)
# STAU1 dsRBD3/4 = STAU1 dsRBD3/4 (Homo sapiens, UniProt O95793-2 102-274)
# dsRBD3 E110A L113A = dsRBD3 E110A L113A (Homo sapiens, UniProt O95793-2 102-181, E110A;L113A)
# dsRBD3/4 K133A = dsRBD3/4 K133A (Homo sapiens, UniProt O95793-2 102-274, K133A)
# STAU1 dsRBD3 = STAU1 dsRBD3 (Homo sapiens, UniProt O95793-2 102-181)
# [3] = target: dsRBD3/4 I105A S106A E110A L113A (Homo sapiens, UniProt O95793-2 102-274, I105A;S106A;E110A;L113A)
# dsRBD3/4 R234A R236A = dsRBD3/4 R234A R236A (Homo sapiens, UniProt O95793-2 102-274, R234A;R236A)
# [4] = target: dsRBD3/4 I105A S106A S208A Q212A Q215A (Homo sapiens, UniProt O95793-2 102-274, I105A;S106A;S208A;Q212A;Q215A)
# dsRBD3/4 S208A = dsRBD3/4 S208A (Homo sapiens, UniProt O95793-2 102-274, S208A)
# dsRBD3/4 F109A = dsRBD3/4 F109A (Homo sapiens, UniProt O95793-2 102-274, F109A)
# STAU1 dsRBD4 = STAU1 dsRBD4 (Homo sapiens, UniProt O95793-2 205-274)
# dsRBD3 I105A S106A = dsRBD3 I105A S106A (Homo sapiens, UniProt O95793-2 102-181, I105A;S106A)
# dsRBD4 S208A Q212A Q215A = dsRBD4 S208A Q212A Q215A (Homo sapiens, UniProt O95793-2 205-274, S208A;Q212A;Q215A)
# dsRBD4 Q212A Q215A = dsRBD4 Q212A Q215A (Homo sapiens, UniProt O95793-2 205-274, Q212A;Q215A)
# dsRBD4 Q212A Q215A, sequence (O95793 286-355 Q293A/Q296A): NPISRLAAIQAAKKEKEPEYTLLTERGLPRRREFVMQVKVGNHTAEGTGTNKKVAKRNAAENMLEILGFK
# STAU1 dsRBD3/4, sequence (O95793 183-355): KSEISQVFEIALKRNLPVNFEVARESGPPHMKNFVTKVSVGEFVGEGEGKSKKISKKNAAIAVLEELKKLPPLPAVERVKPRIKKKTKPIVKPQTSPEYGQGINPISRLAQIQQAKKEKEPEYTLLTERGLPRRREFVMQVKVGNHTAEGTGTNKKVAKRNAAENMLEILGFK
# dsRBD3/4 E110A L113A, sequence (O95793 183-355 E191A/L194A): as the sequence (O95793 183-355) above, with E9A, L12A counted along it
# dsRBD3 I105A S106A, sequence (O95793 183-262 I186A/S187A): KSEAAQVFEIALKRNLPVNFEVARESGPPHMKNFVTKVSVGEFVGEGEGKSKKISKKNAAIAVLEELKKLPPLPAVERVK
# STAU1 dsRBD3, sequence (O95793 183-262): as the sequence (O95793 183-262 I186A/S187A) above, with A4I, A5S counted along it
# dsRBD3/4 S208A, sequence (O95793 183-355 S289A): as the sequence (O95793 183-355) above, with S107A counted along it
# dsRBD3/4 I105A S106A, sequence (O95793 183-355 I186A/S187A): as the sequence (O95793 183-355) above, with I4A, S5A counted along it
# dsRBD3/4 F109A R209A, sequence (O95793 183-355 F190A/R290A): as the sequence (O95793 183-355) above, with F8A, R108A counted along it
# dsRBD3/4 R234A R236A, sequence (O95793 183-355 R315A/R317A): as the sequence (O95793 183-355) above, with R133A, R135A counted along it
# STAU1 dsRBD4, sequence (O95793 286-355): as the sequence (O95793 286-355 Q293A/Q296A) above, with A8Q, A11Q counted along it
# dsRBD3/4 F109A, sequence (O95793 183-355 F190A): as the sequence (O95793 183-355) above, with F8A counted along it
# dsRBD3/4 R209A, sequence (O95793 183-355 R290A): as the sequence (O95793 183-355) above, with R108A counted along it
# dsRBD3/4 S208A Q212A Q215A, sequence (O95793 183-355 S289A/Q293A/Q296A): as the sequence (O95793 183-355) above, with S107A, Q111A, Q114A counted along it
# dsRBD4 S208A Q212A Q215A, sequence (O95793 286-355 S289A/Q293A/Q296A): as the sequence (O95793 286-355 Q293A/Q296A) above, with S4A counted along it
# dsRBD3 E110A L113A, sequence (O95793 183-262 E191A/L194A): as the sequence (O95793 183-262 I186A/S187A) above, with A4I, A5S, E9A, L12A counted along it
# dsRBD3/4 I105A S106A S208A Q212A Q215A, sequence (O95793 183-355 I186A/S187A/S289A/Q293A/Q296A): as the sequence (O95793 183-355) above, with I4A, S5A, S107A, Q111A, Q114A counted along it
# dsRBD3/4 Q212A Q215A, sequence (O95793 183-355 Q293A/Q296A): as the sequence (O95793 183-355) above, with Q111A, Q114A counted along it
# dsRBD3 F109A, sequence (O95793 183-262 F190A): as the sequence (O95793 183-262 I186A/S187A) above, with A4I, A5S, F8A counted along it
# dsRBD3/4 E110A L113A Q212A Q215A, sequence (O95793 183-355 E191A/L194A/Q293A/Q296A): as the sequence (O95793 183-355) above, with E9A, L12A, Q111A, Q114A counted along it
# dsRBD3/4 K133A, sequence (O95793 183-355 K214A): as the sequence (O95793 183-355) above, with K32A counted along it
# dsRBD3/4 I105A S106A E110A L113A, sequence (O95793 183-355 I186A/S187A/E191A/L194A): as the sequence (O95793 183-355) above, with I4A, S5A, E9A, L12A counted along it
binder,measurement,setting,value
GGCAGAAGCUGCCUCUUCGGAGGCAGUUUCUGCC (structured_RNA) [top 2/3 ARF1 SBS (sARF1 SBS)],Kd,dsRBD3/4 I105A S106A,28.8 ± 2.7 nM
same,Kd,[1],87.2 ± 3 nM
same,Kd,dsRBD3/4 Q212A Q215A,15.3 ± 0.7 nM
same,Kd,dsRBD3/4 F109A R209A,27.7 ± 5.5 nM
same,Kd,dsRBD3/4 R209A,17.7 ± 4.1 nM
same,Kd,dsRBD3 F109A,98.2 ± 8.7 nM
same,Kd,[2],18.5 ± 1.1 nM
same,Kd,dsRBD3/4 E110A L113A,18.5 ± 4.3 nM
same,Kd,STAU1 dsRBD3/4,17.8 ± 4.3 nM
same,Kd,dsRBD3 E110A L113A,31.5 ± 1.7 nM
same,Kd,dsRBD3/4 K133A,23.2 ± 9.7 nM
same,Kd,STAU1 dsRBD3,41.4 ± 1.5 nM
same,Kd,[3],21.8 ± 6.4 nM
same,Kd,dsRBD3/4 R234A R236A,26 ± 9.1 nM
same,Kd,[4],43.7 ± 5.2 nM
same,Kd,dsRBD3/4 S208A,28 ± 4.4 nM
same,Kd,dsRBD3/4 F109A,29.7 ± 5.8 nM
same,Kd,STAU1 dsRBD4,74.8 ± 17.6 nM
same,Kd,dsRBD3 I105A S106A,147 ± 35.6 nM
same,Kd,dsRBD4 S208A Q212A Q215A,390 ± 38.4 nM
same,Kd,dsRBD4 Q212A Q215A,121 ± 15 nM
"GGCGAGUGCCAGAAGCUGUCUCCUUCGGGAGGCAGUUUCUGGUACUCGCC (structured_RNA) [long ARF1 SBS (19 bp, UUCG loop)]",Kd,STAU1 dsRBD3/4,26.5 ± 2.9 nM
GGAGUGCCAGAAGCUACGGUUUCUGGUACUCC (structured_RNA) [bottom 2/3 ARF1 SBS],Kd,STAU1 dsRBD3/4,31 ± 0.1 nM

# — PMC7038937
